In a protein production outcome set (Wang et al. 2014):

Assay: label from the status in PepcDB records

Row | Sequence | protein production
1 | MAKRFMCETLGTACLGLSMALAAPAAFALADIIETPARPTELAPQSLLTDATRAGDRIVSVGERGHVIYSDDQGQSWTQAEVPVAVTLTAVDFGTEQHGWVVGHSGVVLHSSDSGETWELQLDGIQAAELVIASKEDQIAELEERIEQAPEEEKADLEWALDDLFFALENTQADMEIGPVNPFLDVWFEDENHGFVVGAYGMILRTQDGGQTWEDWAPKLDNPTNFHYNSIAEVAGGALVVVGEAGQIHVSVDGGESWEKRESPYDGSLFGVTGTGRVNEVLAFGLRGNTLLSTDLGRSWTMVPNEGGATLNNAAVAEDGRITLVGNGGAVLMSTNNGESFRPYFRNDREGVMGVVPLPGTNLLLVGEGGVEITDARGRNLN | failed
2 | MAKTDARSPRTERGTIALQDASQDIWDKKYRLKSKDGTPVDASVDGTWQRVARALADVEDKASREHWYGRFLWALRNGAIPAGRIISNAGALGHKPATSTINCTVSGTIQDSMDNILEKVHEAGLTLKAGCGIGYEFSTLRPRGAYVSGAGAYTSGPLSFMDIYDKMCFTVSSAGGRRGAQMGTFDVSHPDVREFIRAKREDGRLRQFNLSLLITDQFMQAVEQDADWPLVFPVHVKERDEIDLDDPNAVVWREWPIQDDYVQRADGLVACKVYGQVRARHLWDMIMVSTYDYAEPGFILIDRVNELNNNWWCEAIRATNPCGEQPLPPYGSCLLGSVNLTCFVEQPFGDEARFDWDRFREVVRVFTRMLDNVVEINGLPLEQQRQEILGKRRHGMGFLGLGSTLTLLKLRYGSPEACVFTEEVAREMALVGWEVALELAREKGPAPILAQDYEVTAEMLRKRPEMAADGYKAGDRIRGSVLHAKYSRYMQRVAEHAPELIEALAETGARFTHHSSIAPTGTISLSLANNASNGIEPSFAHHYSRNLIREGRKTKEKVEVYSYELLAYRTLVNAQALPDSDDPARRLPDYFITADSVTPAQHMDIQAAAQKWVDSSISKTANVPTDYPFEDFKDIYRYAWHQGLKGCTTFRFNPEAFQGVLVKESDLEKTRYRFELEDGSVVEFKGNEQVEYDGEIHTAANLFDALKEGYYGK | failed
3 | MAKYQSMLVVIDPNQDDQPALRRAVYLHQRIGGRIKAFLPIYDFSYEMTTLLSPDERTAMRQGVIAQRTAWIREQAKFYLESGVPIDVKVVWHNRPFEAIIQEVVSEKHDLLLKMAHQHDKLEAVIFTPTDWHLLRKCPCPVWMVKDQPWPEGGKALVAVNLASEENYHNTLNEKLVRETLSLAEEVNHTEVHLIGAYPVTPINIAIELPDFDPSVYNDAIRGQHLLAMKALRQKFGIDEKFTHVEKGLPEEVIPDLAEHLQAGIVVLGTVGRTGLSAAFLGNTAEQVVDHLRCDLLVLKPEAYQTPVELDDDDDD | failed
4 | MALELSRLPELLSRIDGYKGQPVTRLAVMLNLLVFIRSSELRYARWSEIDIDNSMWTIPAEREPLPGVKFSHRGSKMRTPHLVPLSKQVVAILAELQTWAGENGLIFTGAHDPRKPISENTVNKALRVMGYDTTQEVCGHGFRAMACSALIESGLWSRDAVERQMSHQERNGVRAAYIHKAEHLEERRLMLQWWADFLDANREKGISPFEYAKINNPLKLEHHHHHH | not failed
5 | MALFKRSSASAKGFDWMGLLWLFLFFWYFSGITQLLIQLTDTSGFTGFRQAFFMSAIWLAPMLLFPARTKVMAAVIGVVLWACSMASLGYFFVYQQEFSQSVIFIMFESNPSEAGEYLTQYFAWWMLLAFLAHSAFAFFLWTRLRPVYLPRGQALVAATAILVAIVGYPLVKQISRADTLAAGLEKFETRIEPAVPWQMVIAYRRYREQLDGMQGMLASASKIAPLTNLKDSMANQPATLVLVIGESTNRQRMSLYGYPRQTTPELDKLKDQLAIFNNVITPRPYTIEALQQVLTFADEENPDLYLKSPSLVSVMKQAGYKTYWITNQQTMTKRNTMLTTFSEQADEQVYLNNNRNQNARQYDGDVLEPFSKALADSAPRKFIVVHLLGTHMSYQYRYPPSFDKFNDRQGVPAGVRDDQLPTYNSYDNAVLYNDFVVSNLIKNYAKTDPNGFLLYLSDHGEDVFDSAGHDTLGRNEARPTAPMYTIPFMAWASPKWRETHDWSFASDLSRPYMSSQLIHTWADLAGLSFDELDHSRSLVSDSFKPRPLLIGDPYSRQSKPLIDFSLMKPKAPVEATVVQK | failed
6 | MALINLNHTDDGYDAYDACPARSVQQETAVGAGAQILLLALLGTAIGMGTAGWLTGLAFAFASWAVLSRALHRSRLPSFGPANRVTLGRATLVGGVTALVADSFRSAPPLSLLVGLTAVALILDGVDGRVARRTGTSTPLGARFDMEVDAFLILVLSVYVALDLGPWVLLIGGMRYVFVAAARVWPWLTAPLPPSTARKTVAALQGVLLLLAGAELLPRPGNAGVVAVALGLLVWSFGRDVRWLWRRSRVPAAPVTAVRELVAQ | failed
7 | MALLKWIPARGTLPLSPKWVATTLADASPDSVPVLFLHGTLGSPGNFERPAQRLAQLGRPFFAPAYGEHGTADLDRSTAELLRYVDHLRDMGIKQVDIVGHSAGGLQGLRIAHARPGFVRKLIGLGAAFRGVPRTVRFKPVVKLITGQAVIQLTQEIPAELPDGVELVSIYSTADHIVPVASSTLGELIEITDIRHEDLPRQADVIMEALGYPAETDSPTD | failed
8 | MALPLSQLPQEIIREVRGRKGLAFLAFVIVSFAVLGAGFVWPYKYQSETIIFVDDRNIIAPLMEGRAVATEINDRTSAAKELLMSRSLIEKVALDPEIYPDAPSDPAALEYRIANIRSGLSVRPRGDSYFSIGFSSTSQMEAFRVAQKLGQVFIEETKDRKRAESRNAYDFIDKQVKSYEQQLAQAENRLKEFLSENTDGTEQEANARMAQLRNQLELAELEKKELETRAASLQSQLGGIRPTITQGRTEDAYRERIRILEERLDSLRLQYHDTYPDIVILREQLAELRKQRDQAAERPTDVSSLEGEEAVNPLYQELRANLSTTRADMATVDTRITSLSRLLEQQAKRMERIQANKAQYSELTRDMEVNREIYDDLLKRREKARVSMHLDIEGQGLNYRINETAQFPRTPSGPQFSMFAAAGLFLGLAAPFGAVAGLLQVDPRIRARKQLEEDIGLPVLVEIPEVRTPYEKRRDRKVTLLIGIFAVLTVTVYVTIVVLAQMGVI | failed
9 | MALPLVSSVSYIKSSNQFHCSFSLRKEKFELSSFFIVLCSHFSYVDTAERLELDRLLLWSSHQKIRFSKRTFSQRIVVKMSASTLPMNLGKAKKVWIWTMCKEVMTVAVERGWNTFIFSSDNRKLSNEWSSIALMDTLFIEEKKVIDGTGNVVASVFEVSTPEELRSLNIENEQIENIVLDFLDWKSIPAENLVAALQGSEKTVFAVSNTPSEAKLFLEALEHGLGGIILKSEDVKAVLDLKEYFDKRNEESDTLSLTEATITRVQMVGMGDRVCVDLCSLMRPGEGLLVGSFARGLFLVHSECLESNYIESRPFRVNAGPVHAYVAVPGGKTCYLSELRTGREVIVVDQKGKQRTAVVGRVKIEKRPLIVVEAKLSTKEEETVYSIILQNAETVALVTPHQVNSSGRTAVPVTSLKPGDQVLIRLQGGARHTGIEIQEFIVEN | failed
10 | MALPPYDPNFTLAFSYGRRDNVFENDPEHDESASAAIVAVELISSARLALKLDSVRTEYSAQYLVDKAGSRNLRRRRKLTVKDCLNFALKKGGIPRAEDWPPLGSESKTPSSYEPALVSMKGEVIEPKDMDEVPELLVHQSAVGAKLHVFTPHIELQQDVSAIAYARYVGLRDGIVVGTEKIQGKSMAIVKVWYKKKFVVVKVALSRMFYLAGVGPSVLLVDFCVPRLSID | failed
11 | MALSGGDDQVPPGGPMTVSTRLIDAGSTIMQRRLPVKQMNTHVSTFAIYGGDMSRLIGTHHYVHRVNDEFLQCAVYASDRSDAPLIGIEYVISDRLYETLSEDEQKLWHSHAYEVKSGSWAYPRLPEVVAAPELKNIAKTYGKFWCTWQIDRGDKLPMGAPELMMSPQGVGQGVLRPELVKRRDEKYNISTDDLKHTRAEIAEPEWINPMADYWKQHGKCFVLDIATVEMNRHAQFP | failed
